Patent US6699969

B1: baculovirus co-expressed S. purpuratus katanin p60/p80 heterodimer, each subunit with N-terminal His(6) tag (protein)
chain 1: MSVDEICENTKMGREYALLGNYETSLVYYQGVLQQIQKLLTSVHEPQRKHQWQTIRQELSQEYEHVKNITKTLNGFKSEPAAPEPAPNHGRAAPFSHHQHAAKPAAAEPARDPDVWPPPTPVDHRPSPPYQRAARKDPPRRSEPSKPANRAPGNDRGGRGPSDRRGDARSGGGGRGGARGSDKDKNRGGKSDKDKKAPSGEEGDEKKFDPAGYDKDLVENLERDIVQRNPNVHWADIAGLTEAKRLLEEAVVLPLWMPDYFKGIRRPWKGVLMVGPPGTGKTMLAKAVATECGTTFFNVSSASLTSKYHGESEKLVRLLFEMARFYAPSTIFIDEIDSICSKRGTGSEHEASRRVKSELLIQMDGVSGPSAGEESSKMVMVLAATNFPWDIDEALRRRLEKRIYIPLPEIDGREQLLRINLKEVPLADDIDLKSIAEKMDGYSGADITNVCRDASMMAMRRRIQGLRPEEIRHIPKEELNQPSTPADFLLALQKVSKSVGKEDLVKYMAWMEEFGSV
chain 2: MATKRAWKLQELVAHSSNVNCLALGPMSGRVMVTGGEDKKVNLWAVGKQNCIISLSGHTSPVDSVKFNSSEELVVAGSQSGTMKIYDLEPAKIVRTLTGHRNSIRCMDFHPFGEFVASGSTDTNVKLWDVRRKGCIYTYKGHSDQVNMIKFSPDGKWLVTASEDTTIKLWDLTMGKLFQEFKNHTGGVTGIEFHPNEFLLASGSSDRTVQFWDLETFQLVSSTSPGASAVRSISFHPDGSYLFCSSQDMLHAFGWEPIRCFDTFSVFWGKVADTVIASTQLIGASFNATNVSVYVADLSRMSTTGIAQEPQSQPSKTPSGGAEEVPSKPLTASGRKNFVRERPHTTSSKQRQPDVKSEPERQSPTQDEGVKDDDATDIKDPDSYAKIFSPKTRVDHSPERNAQPFPAPLDVPGAQEPEPFKHPPKPAAAAAVAPVSRAPAPSASDWQPAQANPAPNRVPAATKPVPAQEVAPSRKPDPISTIIPSDRNKPANLDMDAFLPPAHAQQAPRVNAPASRKQSDSERIEGLRKGHDSMCQVLSSRHRNLDVVRAIWTAGDAKTSVESVVNMKDQAILVDILNIMLLKKSLWNLDMCVVVLPRLKELLSSKYENYVHTSCACLKLILKNFTSLFNQNIKCPPSGIDITREERYNKCSKCYSYLIATRGYVEEKQHVSGKLGSSFRELHLLLDQLE
B2: baculovirus-expressed S. purpuratus katanin p60 subunit with N-terminal His(6) tag (protein)
chain: B1 chain 1

Target: taxol-stabilized microtubules prepared from bovine brain tubulin, P81947
Sequence (P81947 whole entry, chain 1 of 2): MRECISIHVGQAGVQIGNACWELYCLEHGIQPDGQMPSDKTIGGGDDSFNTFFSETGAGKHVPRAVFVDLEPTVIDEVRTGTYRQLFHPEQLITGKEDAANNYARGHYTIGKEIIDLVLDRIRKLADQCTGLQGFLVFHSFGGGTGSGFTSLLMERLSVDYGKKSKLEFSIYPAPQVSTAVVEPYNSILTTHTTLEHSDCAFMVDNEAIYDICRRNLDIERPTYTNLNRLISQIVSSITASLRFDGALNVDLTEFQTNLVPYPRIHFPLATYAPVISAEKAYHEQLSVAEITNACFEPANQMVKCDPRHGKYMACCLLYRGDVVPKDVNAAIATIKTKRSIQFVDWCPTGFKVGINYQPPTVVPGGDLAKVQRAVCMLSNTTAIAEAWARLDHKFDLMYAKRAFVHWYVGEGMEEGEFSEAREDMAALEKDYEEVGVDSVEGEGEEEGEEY
Sequence (chain, as listed by the source, chain 2 of 2): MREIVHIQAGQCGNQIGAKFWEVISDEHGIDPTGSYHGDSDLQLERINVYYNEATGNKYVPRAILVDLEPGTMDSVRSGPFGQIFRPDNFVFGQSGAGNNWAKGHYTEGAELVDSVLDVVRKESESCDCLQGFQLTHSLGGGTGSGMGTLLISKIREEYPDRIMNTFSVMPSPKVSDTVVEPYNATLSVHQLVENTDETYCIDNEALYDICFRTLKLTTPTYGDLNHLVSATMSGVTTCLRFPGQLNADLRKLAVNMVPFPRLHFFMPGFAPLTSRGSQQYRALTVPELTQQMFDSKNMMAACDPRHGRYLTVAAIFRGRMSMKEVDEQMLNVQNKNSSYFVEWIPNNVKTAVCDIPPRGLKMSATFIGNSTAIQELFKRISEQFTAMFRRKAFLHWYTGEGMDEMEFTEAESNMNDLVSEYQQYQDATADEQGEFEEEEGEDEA

| Protein | ATPase activity (ATP turnover), stimulation by microtubules | maximal microtubule-stimulated ATPase rate | microtubule concentration at peak ATPase stimulation | microtubule severing, fluorescence microscopy assay | microtubule-stimulated ATPase activity |
| --- | --- | --- | --- | --- | --- |
| B1 | this activity was stimulated ~10-fold by microtubules | maximal microtubule-stimulated rate of 3 ATP/katanin/sec | peak at ~2 uM tubulin | Both p60 and p60/p80 severed microtubules in this assay |  |
| B2 |  |  | peak at ~2 uM tubulin | Both p60 and p60/p80 severed microtubules in this assay | p60 alone displayed a microtubule-stimulated ATPase activity |
